{
  "source": "paper PMC6915384",
  "about": "“Kinetic Parameter Estimation and Mathematical Modelling of Lipase Catalysed Biodiesel Synthesis in a Microreactor” (Micromachines, 2019)",
  "proteins": {"B1": {"name": "lipase from Thermomyces lanuginosus (Lipolase 100L; Lipolase L100; TlL) (Thermomyces lanuginosus) (protein)", "chain": "EVSQDLFNQFNLFAQYSAAAYCGKNNDAPAGTNITCTGNACPEVEKADATFLYSFEDSGVGDVTGFLALDNTNKLIVLSFRGSRSIENWIGNLNFDLKEINDICSGCRGHDGFTSSWRSVADTLRQKVEDAVREHPDYRVVFTGHSLGGALATVAGADLRGNGYDIDVFSYGAPRVGNRAFAEFLTVQTGGTLYRITHTNDIVPRLPPREFGYSHSSPEYWIKSGTLVPVTRNDIVKIEGIDATGGNNQPNIPDIPAHLWYFGLIGTCL", "notes": "commercial liquid preparation Lipolase 100L (Sigma-Aldrich), free enzyme in phosphate buffer; mass 33,400 g/mol used for calculations (cited)"}},
  "substrate": "CO",
  "experiment": "initial rates of FAME formation in PTFE microreactor, GC; non-linear regression",
  "assay_type": "biochemical, Thermomyces lanuginosus",
  "conditions": "transesterification, co-substrate sunflower oil (fatty acids constant; printed 1,488.15 mg/L), 40 °C, 0.01 mol/L potassium phosphate pH 7.4, double-substrate Michaelis-Menten, methanol range printed a",
  "data": [
    {"protein": "B1", "values": [
      {"measurement": "Km", "result": "7.56 ± 2.77", "unit": "mg/mL"}
    ]}
  ]
}
